This is an account of results in the supplement of paper PMC10567573.

The data set is described as follows: protein stability index of a GFP-peptide fusion (GPS, HEK-293T) (PSI 1-6); higher = more stable.
Setting [1] is: treatment: DMSO, c terminus: a fixed tail appended.
The mark [2] stands for this setting: treatment: MLN4924 1 uM, 8 h, c terminus: a fixed tail appended.
Setting [3] is: treatment: DMSO, c terminus: native.
Setting [4] is: treatment: MLN4924 1 uM, 8 h, c terminus: native.

± gives the standard deviation.
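Further: 24-mer peptide tiles fused after GFP, lentivirally expressed, FACS-sorted into six equal bins by GFP/DsRed ratio, decoded by Illumina sequencing, PSI is the read-weighted mean bin number.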

With KAGLENSLAETECRYATQLQQIQG [KRT15], the protein stability index under setting [1] amounted to 3.92 ± 0.049 and the protein stability index under setting [2] amounted to 4 ± 0.3.

With KAHKYSELIILYEKKGLHEKALQV [VPS39], the protein stability index under setting [1] worked out at 2.19 ± 0.43 and the protein stability index under setting [2] came out at 2.18 ± 0.46.

As for KASWSSLSMDEKVELYRIKFKESF [COX4I1], the protein stability index worked out at 2.55 ± 0.56 under setting [1] and 2.85 ± 0.44 under setting [2].

Take KATASEAVDCKWYIRAPPRSKIYL [NETO1]: the protein stability index is, setting by setting: under setting [1], 2.23 ± 0.54; under setting [2], 2.25 ± 0.32.

Regarding KATMQNLNDRLASYLDKVRALEEA [KRT17], the protein stability index is 3.14 ± 0.19 under setting [1] and 3.43 ± 0.3 under setting [2].

On to KAVCGKCSSKRSSIPLMGFEFEVR [WDFY2], for which the protein stability index by setting is: under setting [1], 2.32 ± 0.12; under setting [2], 2.71 ± 0.39.

KAVFGKHGPISEVLLIKDRTSKSR [RBMY1A1]: the protein stability index runs as follows: under setting [1], 3.04 ± 0.28; under setting [2], 3.34 ± 0.22.

Turning to KDHECSECGKTFIYNSHLVVHQRV [ZNF232], the protein stability index under setting [1] came to 2.56 ± 0.32 and the protein stability index under setting [2] turned out to be 2.88 ± 0.41.

KDKRRIVSSSQDGKVIVWDSFTTN [GNB5]: the protein stability index runs as follows: under setting [1], 3.63 ± 0.049; under setting [2], 3.8 ± 0.19.

In the case of KDPKAGDSKSGGSGSESDHTTRSS [DVL3], the protein stability index runs as follows: under setting [1], 5.3 ± 0.38; under setting [2], 5.53 ± 0.23.

Take KDVAIDMMDSRTSQQLQLIDEQDS [STX5]: the protein stability index is 5.4 ± 0.21 under setting [1] and 5.33 ± 0.4 under setting [2].

As for KEGARNIRTSERVTLIVDNTRFVV [BTBD10], the protein stability index worked out at 1.95 ± 0.32 under setting [1] and 2.29 ± 0.34 under setting [2].

In the case of KEPVIIECGHNFCKACITRWWEDL [TRIM39], the protein stability index was 2.53 ± 0.5 under setting [1] and 2.62 ± 0.36 under setting [2].

For the sequence KGERRREPGGYDSSSTLMSSELET [DVL3], the protein stability index under setting [1] worked out at 5.19 ± 0.19 and the protein stability index under setting [2] was 5.15 ± 0.13.

On to KGGAVAADGRIEPGDMLLQVNEIN [DVL3], for which the protein stability index is, setting by setting: under setting [1], 4.49 ± 0.19; under setting [2], 4.59 ± 0.14.

In the case of KGKQPTSAENSVAKKEDKVPVKKQ [NANOGP8], the protein stability index runs as follows: under setting [1], 5.37 ± 0.32; under setting [2], 5.44 ± 0.14.

Take KHFCPRTPVILVGCQLDLRYADLE [RHOBTB1]: the protein stability index under setting [1] came to 2.35 ± 0.49 and the protein stability index under setting [2] is 2.19 ± 0.33.

For KHTVKEHECKLTQEILELIDREVD [IQUB], the protein stability index runs as follows: under setting [1], 4.06 ± 0.23; under setting [2], 4.24 ± 0.22.

With KILVGNRLHLAFKRQVPREQAQAY [RAB40A], the protein stability index runs as follows: under setting [1], 2.48 ± 0.11; under setting [2], 2.56 ± 0.19.

With KIREKEEWIKLDYHRRHNPKTNED [IQUB], the protein stability index runs as follows: under setting [1], 4.23 ± 0.28; under setting [2], 4.74 ± 0.13.

For KIRKPRTIYCSLQLQALNRRFQQT [DLX1], the protein stability index reads like this: under setting [1], 2.45 ± 0.78; under setting [2], 1.95 ± 0.51.

KISVPRDVMLEELSLLTNRGSKMF [MYOZ1]: the protein stability index reads like this: under setting [1], 2.8 ± 0.28; under setting [2], 2.76 ± 0.35.

As for KKFYEAFSKNLKLGIHEDSTNRRR [HSP90AB1], the protein stability index reads like this: under setting [1], 3.39 ± 0.33; under setting [2], 3.59 ± 0.51.

KKIQVNSKPSIQPKPLLLPAAPKT [ATF6] yielded a protein stability index under setting [1] of 4.18 ± 0.17 and a protein stability index under setting [2] of 4.221 ± 0.027.

Consider KLEYEEIALDLTPVIEELTNAGFL [FAN1], for which the protein stability index by setting is: under setting [1], 2.14 ± 0.23; under setting [2], 2.38 ± 0.24.

In the case of KLGWGHFSTVWLCWDMQGKRFVAM [SRPK2], the protein stability index came out at 2.9 ± 0.87 under setting [1] and 2.64 ± 1.2 under setting [2].

For KLKNDTENHQPVSLSDLEIQASAG [ZNF75A], the protein stability index was found to be 5.21 ± 0.32 under setting [1] and 5.15 ± 0.14 under setting [2].

For KLPLQIDCLAAWEEWLLVGTKQGH [VPS39], the protein stability index reads like this: under setting [1], 2.43 ± 0.41; under setting [2], 2.47 ± 0.14.

As to KLQGLENWGQDPGVSANASKAWHQ [PBXIP1], the protein stability index worked out at 3.27 ± 0.27 under setting [1] and 3.37 ± 0.28 under setting [2].

KLVADFQRYILYWRKRFTEQPITD [ZNF277]: the protein stability index under setting [1] is 1.99 ± 0.24 and the protein stability index under setting [2] is 2.19 ± 0.44.

In the case of KMKTRELHRESSNFDSIYICPSTF [HDAC6], the protein stability index was determined as 2.26 ± 0.36 under setting [1] and 2.71 ± 0.39 under setting [2].

KPKMNYEKLSRGLRYYYDKNIIHK [ETS2]: the protein stability index is 2.48 ± 0.19 under setting [1] and 2.52 ± 0.38 under setting [2].

Turning to KRGSIPTSLTALSLASASPPLSGR [PPFIA4], the protein stability index under setting [1] was 3.99 ± 0.2 and the protein stability index under setting [2] stood at 4.17 ± 0.28.

As to KSEEGHPFKAYLDVDITLSSEAFH [RTN3], the protein stability index by setting is: under setting [1], 2.87 ± 0.45; under setting [2], 2.67 ± 0.41.

As for KSELSDGIAILVGSNDRVQGVISQ [TRIM55], the protein stability index by setting is: under setting [1], 3.46 ± 0.31; under setting [2], 3.52 ± 0.34.

As for KSLSELVDDKFGTGTKKVTRILDG [PSD2], the protein stability index was found to be 4.44 ± 0.18 under setting [1] and 4.53 ± 0.23 under setting [2].

For the sequence KTIKSFFPHSGKDCLLCFPETLPE [C8orf76], the protein stability index reads like this: under setting [1], 2.92 ± 0.26; under setting [2], 3.03 ± 0.32.

In the case of KTPVLLTDYPVDLDEIAYFTWAS [MYORG], the protein stability index by setting is: under setting [3], 2.25 ± 0.15; under setting [4], 2.18 ± 0.3.

Regarding KVPVITSSKEEQKLIATSNKPAVK [KCTD10], the protein stability index stood at 4.92 ± 0.27 under setting [1] and 5.29 ± 0.23 under setting [2].

On to KWTRVASMSTRRLGVAVAVLGGFL [KLHL20], for which the protein stability index is, setting by setting: under setting [1], 2.18 ± 0.11; under setting [2], 2.08 ± 0.13.

For the sequence LAELQEQLKAVHEQLAALSQAPVN [BRD3], the protein stability index was 4.2 ± 0.3 under setting [1] and 4.24 ± 0.43 under setting [2].

As to LAEYCIKTKVPSNDNSSDLLYDDL [UBE2R2], the protein stability index runs as follows: under setting [1], 4.13 ± 0.17; under setting [2], 4.19 ± 0.32.

As to LAGMANHGSPQLGEGMFQHQTSVA [TBX5], the protein stability index runs as follows: under setting [1], 3.83 ± 0.2; under setting [2], 3.83 ± 0.13.

Regarding LAIQEMVSLTSPSAPPTSRTSSGN [PPFIA4], the protein stability index came to 3.88 ± 0.19 under setting [1] and 4.05 ± 0.17 under setting [2].

On to LALIDYLTQKRSQLVKKLNDSDHQ [VPS39], for which the protein stability index is 2.51 ± 0.14 under setting [1] and 2.77 ± 0.69 under setting [2].

LAQEAEAWLNYPCFKNWDGSPVSS [OAS1] registered a protein stability index under setting [1] of 3.04 ± 0.28 and a protein stability index under setting [2] of 3.11 ± 0.35.

Consider LASGPGKYMPHLCQDSSGEVSCQC, for which the protein stability index is, setting by setting: under setting [1], 3.99 ± 0.12; under setting [2], 4.1 ± 0.27.

LASHHNHFSQIVIFMLCTLVLAIP [OR10K2]: the protein stability index came out at 3.06 ± 0.22 under setting [1] and 3.13 ± 0.18 under setting [2].

Consider LCALPVHVAVEHQLPPASRCVLVF [SOAT2], for which the protein stability index runs as follows: under setting [1], 2.71 ± 0.6; under setting [2], 2.71 ± 0.61.

Regarding LDAEDRPAWNSKLQYILAQIGFSV [SLC6A17], the protein stability index stood at 2.19 ± 0.53 under setting [1] and 2.32 ± 0.21 under setting [2].

On to LDAVQVLSGVSQLLPKSRENYLNR [FCHO1], for which the protein stability index is, setting by setting: under setting [1], 3.13 ± 0.22; under setting [2], 3.25 ± 0.18.

LDEPNAESDYTYSSSYEQFNGELP [SRPK2]: the protein stability index was 4.78 ± 0.28 under setting [1] and 4.62 ± 0.19 under setting [2].

The sequence LDFSKKILHTAWHPSENIIAVAAT [PPP2R2B] showed a protein stability index under setting [1] of 2.05 ± 0.2 and a protein stability index under setting [2] of 2.3 ± 0.039.

On to LDPSFPVEFVRHGDIIRLEHKETS [POMT2], for which the protein stability index was 5.71 ± 0.17 under setting [1] and 5.59 ± 0.25 under setting [2].

Consider LDVEAAHSEILKYFQSVTSNRWLM [STX5], for which the protein stability index under setting [1] turned out to be 2.06 ± 0.29 and the protein stability index under setting [2] is 1.95 ± 0.055.

Consider LEEGDELQLAIPRENAQISLDGDV [TNFSF13B], for which the protein stability index is, setting by setting: under setting [1], 5.43 ± 0.083; under setting [2], 5.29 ± 0.12.

Turning to LEQDLQQVMVSGPNLNETSIVSGG [ARFIP2], the protein stability index under setting [1] was found to be 5.03 ± 0.26 and the protein stability index under setting [2] stood at 4.99 ± 0.12.

For LEWNSLGTWDDAFATFCGGLAANG [LRRC45], the protein stability index is, setting by setting: under setting [1], 2.52 ± 0.3; under setting [2], 2.58 ± 0.31.

Take LFDNPKLDKELRAMLREKFPEFCS [INTS3]: the protein stability index runs as follows: under setting [1], 2.03 ± 0.32; under setting [2], 2.54 ± 0.31.

On to LFNLSNFLDKSGSHGYDMSTFIRR [SNAP91], for which the protein stability index reads like this: under setting [1], 2.62 ± 0.62; under setting [2], 2.25 ± 0.35.

LFPASPTREAHRESSVPVTPSVPP [FBF1] showed a protein stability index under setting [1] of 4.88 ± 0.19 and a protein stability index under setting [2] of 4.84 ± 0.11.

Regarding LFPNAKKEHVPTWLQNTHVYSWPK [TRAF3IP2], the protein stability index under setting [1] was 2.8 ± 0.33 and the protein stability index under setting [2] stood at 2.81 ± 0.19.

For LFSDPRSTRLTRIHLREDLVQDQD [ZER1], the protein stability index came out at 4.53 ± 0.24 under setting [1] and 4.55 ± 0.09 under setting [2].

Consider LFSLMVVNRLTEELGCDEIIDRE [EID1], for which the protein stability index runs as follows: under setting [3], 3 ± 1.1; under setting [4], 2.37 ± 0.48.

On to LGKILSVELGKQKKKYMPYNHQHK [FADS1], for which the protein stability index worked out at 2.55 ± 0.12 under setting [1] and 2.69 ± 0.23 under setting [2].

With LGLETLKITDFQLHASTVKRYGLG [CPXM2], the protein stability index reads like this: under setting [1], 2.61 ± 0.52; under setting [2], 2.46 ± 0.12.

Regarding LGLLFERHWHRPVLMAVSVHSERK [SCNN1D], the protein stability index under setting [1] worked out at 2.21 ± 0.23 and the protein stability index under setting [2] turned out to be 2.33 ± 0.24.

Take LGRSLTAVFMWPGKDSRWLPSLVL [SLC29A1]: the protein stability index by setting is: under setting [1], 2.98 ± 0.22; under setting [2], 2.83 ± 0.47.

In turn, LGVRRPGGAGKEGVRVNNRFELIN [TCF25] returned a protein stability index under setting [1] of 3.05 ± 0.39 and a protein stability index under setting [2] of 3.12 ± 0.43.

LHAAAAGGNVECIKLLQSSGADFH [ANKRD44] came in with a protein stability index under setting [1] of 3.37 ± 0.091 and a protein stability index under setting [2] of 3.46 ± 0.22.

Regarding LHPDRDPGNPSLHSRFVELSEAYR [DNAJC4], the protein stability index was found to be 3.37 ± 0.22 under setting [1] and 3.51 ± 0.19 under setting [2].

Consider LHSKEIVYRDLKPENILLDRDGHI [PRKX], for which the protein stability index came to 3.7 ± 0.15 under setting [1] and 3.75 ± 0.097 under setting [2].
